Positions count from the first letter of the chain named. In names and notes the source's numbering stands.

The target in experiment [1] is T1, shCD154-ILZ (soluble human CD154, leucine zipper fusion) (human). Kind of experiment: cell-based or functional assay.
In experiment [2] the target is T2, human CD154 endogenously expressed on D1.1 Jurkat cells (human, UniProt P29965 1-261).
T2 sequence: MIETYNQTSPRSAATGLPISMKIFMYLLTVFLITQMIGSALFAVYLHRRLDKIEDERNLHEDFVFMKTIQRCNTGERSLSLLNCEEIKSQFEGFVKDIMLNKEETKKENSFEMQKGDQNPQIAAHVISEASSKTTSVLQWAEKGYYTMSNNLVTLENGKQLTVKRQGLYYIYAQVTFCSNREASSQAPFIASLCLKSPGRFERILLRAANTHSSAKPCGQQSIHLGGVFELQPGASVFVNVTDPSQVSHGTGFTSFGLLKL
Description: cell-based or functional assay.

Experiment [3] addresses T3, shCD154-his (soluble human CD154, His6 fusion) (human, UniProt P29965 113-261).
T3 construct: predominantly trimer
T3 sequence: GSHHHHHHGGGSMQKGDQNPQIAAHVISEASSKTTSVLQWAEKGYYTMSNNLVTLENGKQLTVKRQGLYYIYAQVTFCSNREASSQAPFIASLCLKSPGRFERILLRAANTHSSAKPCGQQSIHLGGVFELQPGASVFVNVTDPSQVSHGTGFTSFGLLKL
Kind of experiment: SPR (ProteOn XPR36), antibody captured via anti-human IgG Fc, shCD154-his analyte, 25 C, two-states binding model. On the procedure:
(§1) Affinity measurements using Surface Plasmon Resonance (SPR) were performed using a ProteOn XPR36 system (BioRad). […] Approximately 4700 RU (response units) of test antibodies were immobilized. The kinetic experiments were performed at 25° C. in running buffer (DPBS+0.03% polysorbate P20+100 μg/ml BSA). […] The association phase was monitored for 3 minutes at 50 μL/min followed by 15 minutes of buffer flow (dissociation phase). The chip surface was regenerated with two 18 second pulses of 100 mM H₃PO₄ (Sigma, Cat#7961) at 100 μL/min.
(§2) Affinity measurements were done using ProteOn as described in Example 1.

Experiment [4] deals with T3, shCD154-his (soluble human CD154, His6 …). Description: SPR (ProteOn XPR36), antibody captured via anti-human IgG Fc, shCD154-his analyte, 25 C, 1:1 Langmuir model. On the procedure: as §1
(§3) The collected data were processed using ProteOn Manager software. First, the data was corrected for background using inter-spots. Then, double reference subtraction of the data was performed by using the buffer injection for analyte injections. The kinetic analysis of the data was performed using a Langmuir 1:1 binding model.
as §2

Experiment [5] has the same target. Kind of experiment: cell-based or functional assay.
The target in experiment [6] is T1, shCD154-ILZ (soluble human CD154, …). Description: cell-based or functional assay. The source holds these as a separate data set.
Experiment [7] has as its target T3, shCD154-his (soluble human CD154, His6 …). Kind of experiment: SPR (ProteOn XPR36) as in Example 1, human CD154; mean ± SD, n = 4. On the procedure:
as §1, §3

Experiment [8] has the same target. Kind of experiment: SPR (ProteOn XPR36), protocols of Example 1; analyte not given. As to the method:
as §1, §3

B1: C4LB150 (antibody, V domains shown)
VH: QLQLQESGPGLVKPSETLSLTCTVSGGSISSYSFYWGWIRQPPGQGLEWIGSLYYSGSTYYNPSLKSRATMSVVTSKTQFSLNLNSVTAADTAVYYCARLQLGTTTDYFDHWGQGTLVTVSS
VL: SYELTQPPSVSVSPGQTASITCSGDELGDKFACWYQQKPGQSPVLVIWQENKRPSGIPERFSGSNSGNTATLTISGTQAMDEADYYCQAWDSDTAVFGGGTKLTVL
notes: IgG2sigma effector silent mAb; lambda VL (OmniRat antibodies were cloned as IgG2sigma/lambda); also called VH C4LH201; VL C4LL82
As to B1, the “NF-κB SEAP reporter gene assay; IC50 (nM); shCD154-ILZ” value in experiment [1] turned out to be 4.95 nM. Besides, the “NF-κB SEAP reporter gene assay; IC50 (nM); D1.1 Jurkat” value in experiment [2] amounted to 3.57 nM. In addition, in experiment [3], the dissociation constant Kd (in general, the concentration at which binding is half-saturated) was found to be 2.72 nM; the koff (in general, the rate constant with which the complex falls apart) came to 0.00617 s⁻¹; the kon (usually the rate constant with which the complex forms) was 2.27e+06 M⁻¹ s⁻¹.

B2: C4LB199 (antibody, V domains shown)
VH: QVQLQESGPGLVKPSETLSLTCTVSGDSISSFIYYWGWIRQPPGKGLDWVGCIYSSGGTYYNPSLKSRVTISVDTSKNQFSLKLPSVTAADTAVYYCARLWLGTTTDYFDYWGQGTLVTVSS
VL: B1 VL with A18V, E26K, L45V, W48Y, E50D, N51D, N65T, D93N, A95V
notes: IgG2sigma effector silent mAb; lambda VL; also called VH C4LH250; VL C4LL125
Take B2: the “NF-κB SEAP reporter gene assay; IC50 (nM); shCD154-ILZ” value in experiment [1] came to 1.09 nM. Moreover, the “NF-κB SEAP reporter gene assay; IC50 (nM); D1.1 Jurkat” value in experiment [2] was determined as 1.21 nM. In experiment [4], this molecule returned a Kd of 0.253 nM, a koff of 0.000404 s⁻¹ and a kon of 1.6e+06 M⁻¹ s⁻¹.

B3: C4LB89 (antibody, human IgG2, kappa)
heavy: QVQLVQSGAEVKKPGSSVKVSCKASGGTFSSYGISWVRQAPGQGLEWMGWISPIFGNTNYAQKFQGRVTITADESTSTAYMELSSLRSEDTAVYYCARSRYYGDLDYWGQGTLVTVSSASTKGPSVFPLAPCSRSTSESTAALGCLVKDYFPEPVTVSWNSGALTSGVHTFPAVLQSSGLYSLSSVVTVPSSNFGTQTYTCNVDHKPSNTKVDKTVERKCCVECPPCPAPPAAASSVFLFPPKPKDTLMISRTPEVTCVVVDVSAEDPEVQFNWYVDGVEVHNAKTKPREEQFNSTFRVVSVLTVLHQDWLNGKEYKCKVSNKGLPSSIEKTISKTKGQPREPQVYTLPPSREEMTKNQVSLTCLVKGFYPSDIAVEWESNGQPENNYKTTPPMLDSDGSFFLYSKLTVDKSRWQQGNVFSCSVMHEALHNHYTQKSLSLSPGK
light: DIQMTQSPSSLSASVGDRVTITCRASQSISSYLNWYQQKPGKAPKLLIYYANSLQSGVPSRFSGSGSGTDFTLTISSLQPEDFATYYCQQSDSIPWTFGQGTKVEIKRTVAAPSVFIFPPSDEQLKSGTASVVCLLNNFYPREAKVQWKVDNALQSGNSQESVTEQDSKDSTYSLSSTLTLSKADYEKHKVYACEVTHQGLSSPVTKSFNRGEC
notes: IgG2sigma/kappa; also called VH C4LH165; VL C4LL49
For the molecule B3, the “NF-κB SEAP reporter gene assay; IC50” value in experiment [5] was found to be 6.22 nM. Also, in experiment [4], the Kd is 0.235 nM, the koff is 0.00038 s⁻¹ and the kon stood at 1.61e+06 M⁻¹ s⁻¹.

B4: C4LB94 (antibody, V domains shown)
VH: QVQLVQSGAEVKKPGSSVKVSCKASGGTFSSYAISWVRQAPGQGLEWMGGISPYFGNTNYAQKFQGRVTITADESTSTAYMELSSLRSEDTAVYYCARDTGWVGAFYLDYWGQGTLVTVSS
VL: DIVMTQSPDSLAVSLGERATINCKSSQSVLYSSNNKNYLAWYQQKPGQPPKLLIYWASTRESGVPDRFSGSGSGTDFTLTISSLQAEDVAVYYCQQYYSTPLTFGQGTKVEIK
notes: IgG2sigma, kappa; also called VH C4LH99; VL PH9L2
For the molecule B4, in experiment [1], the “NF-κB SEAP reporter gene assay; IC50 (nM); shCD154-ILZ” value came to 4.37 nM. Moreover, the “NF-κB SEAP reporter gene assay; IC50 (nM); D1.1 Jurkat” value in experiment [2] was determined as 0.13 nM. In experiment [3], this molecule gave a Kd of 2.09 nM, a koff of 0.00329 s⁻¹ and a kon of 1.58e+06 M⁻¹ s⁻¹.

B5: C4LB5 (antibody, V domains shown)
VH: QVQLVQSGAEVKKPGSSVKVSCKASGGTFSSYAISWVRQAPGQGLEWMGGIIPIFGTANYAQKFQGRVTITADESTSTAYMELSSLRSEDTAVYYCARGASVWDGPAEVFDYWGQGTLVTVSS
VL: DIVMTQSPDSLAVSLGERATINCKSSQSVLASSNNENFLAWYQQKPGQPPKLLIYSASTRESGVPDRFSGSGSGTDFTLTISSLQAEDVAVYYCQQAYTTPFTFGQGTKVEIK
notes: Phage-derived; IgG2sigma effector silent mAb (V234A, G237A, P238S, H268A, V309L, A330S, P331S), kappa; also called VH C4LH12; VL C4LL8
Take B5: the “NF-κB SEAP reporter gene assay; IC50 (nM); shCD154-ILZ” value in experiment [1] stood at 0.54 nM. In experiment [2], the “NF-κB SEAP reporter gene assay; IC50 (nM); D1.1 Jurkat” value was found to be 1.55 nM. Besides, in experiment [6], the “B cell activation assay; IC50 (nM); shCD154-ILZ/cyno B cell” value was 5.35 nM and the “B cell activation assay; IC50 (nM); shCD154-ILZ/human B cells” value is 2.74 nM. Moreover, in experiment [4], binding was characterised by a dissociation constant (Kd) of 0.312 nM, the koff came to 0.000178 s⁻¹ and the kon came to 570000 M⁻¹ s⁻¹.

B6: C4LB237 (antibody, V domains shown)
VH: QVQLVQSGAEVKKPGSSVKVSCKASGGTFSSYGISWVRQAPGQGLEWMGWISPIFGNTNYAQKFQGRVTITADESTSTAYMELSSLRSEDTAVYYCARSRYYGDLDYWGQGTLVTVSS
VL: DIQMTQSPSSLSASVGDRVTITCRASQSISSYLNWYQQKPGKAPKLLIYYANSLQSGVPSRFSGSGSGTDFTLTISSLQPEDFATYYCQQSDSIPWTFGQGTKVEIK
notes: C4LB89 variable regions cloned as wild-type IgG1/kappa; also called C4LBB237
On to B6, for which the “NF-κB SEAP reporter gene assay; IC50” value in experiment [5] amounted to 2.56 nM. Besides, in experiment [7], the Kd stood at 0.0236 nM, the off-rate constant (koff) amounted to 6.05e-05 s⁻¹ and the kon stood at 2.59e+06 M⁻¹ s⁻¹.

B7: C4LB83 (antibody, V domains shown)
VH: QVQLVQSGAEVKKPGSSVKVSCKASGGTFSSYAISWVRQAPGQGLEWMGWIIPIFGNTNYAQKFQGRVTITADESTSTAYMELSSLRSEDTAVYYCAREKDFRGYTKLDYWGQGTLVTVSS
VL: B6 VL with S30N, S31N, Y32W, Y50A, N52S, D92F, I94F, W96Y
notes: IgG2sigma
B7: in experiment [8], the Kd turned out to be 2.23 nM, the koff came to 0.0047 s⁻¹ and the kon is 2.1e+06 M⁻¹ s⁻¹.

B8: C4LB119 (antibody, V domains shown)
VH: QVQLVQSGAEVKKPGSSVKVSCKASGGTFSSYYISWVRQAPGQGLEWMGAIDPYFGYANYAQKFQGRVTITADESTSTAYMELSSLRSEDTAVYYCARTGLNYGGFDYWGQGTLVTVSS
VL: EIVLTQSPATLSLSPGERATLSCRASQSVSSYLAWYQQKPGQAPRLLIYDASNRATGIPARFSGSGSGTDFTLTISSLEPEDFAVYYCQQRSNWPLTFGQGTKVEIK
notes: IgG2sigma
In experiment [8], B8 showed a Kd of 4.79 nM, an off-rate (koff) of 0.0088 s⁻¹ and a kon of 1.84e+06 M⁻¹ s⁻¹.

B9: C4LB189 (antibody, V domains shown)
VH: QVQLVQSGAEVKKPGASVKVSCKASGYTFAAYYIHWVRQAPGQGLEWMGRINPDSGGTDYAQRFQGRVTMTRDTSISTAYMELSRLRSDDTAVFYCARDWNYYDGSGYFGPGYYGLDVWGQGTTVTVSS
VL: SYELTQPPSVSVSPGQTASVTCSGDKLGDKYVCWYQRKPGQSPVLVIYQDRKRPSGIPERFSGSNSGNTATLTISGTQAIDEADYYCQAWDSGTVVFGRGTKLTVL
notes: IgG2sigma effector silent mAb; lambda VL; also called VH C4LH240; VL C4LL116
As for B9, in experiment [1], the “NF-κB SEAP reporter gene assay; IC50 (nM); shCD154-ILZ” value stood at 1.63 nM. Also, the “NF-κB SEAP reporter gene assay; IC50 (nM); D1.1 Jurkat” value in experiment [2] is 2.06 nM. In experiment [4], this molecule gave a Kd of 0.581 nM, an off-rate constant (koff) of 0.000206 s⁻¹ and a kon of 355000 M⁻¹ s⁻¹.

B10: C4LB191 (antibody, V domains shown)
VH: QVQLVQSGAEVKKPGASMKVSCKASGYTFTDYYIHWVRQAPGQGLEWVGRFNPNSGDTNGAQKFQGRVTMTRDTSISTAYMELTRLRSDDTAVYHCAREGELAGIFFDYWGQGTLVTVSS
VL: B9 VL with V20I, C33S, Y35N, Q36H, R37Q, I80M, G93S, R99G
notes: IgG2sigma effector silent mAb; lambda VL; also called VH C4LH242; VL IAPL39
In experiment [4], B10 yielded a Kd of 0.0313 nM, a koff of 0.000176 s⁻¹ and a kon of 5.62e+06 M⁻¹ s⁻¹.
